Measurements published in patent publication US20210301011A1, “COMPOSITION FOR PROPHYLAXIS OR TREATMENT OF IL-8 RELATED DISEASES” (CHUGAI SEIYAKU KABUSHIKI KAISHA, priority 2016, published 2021).
Blank lines part the entries; values can stand above or below the molecule they belong to.

Tests used:
[1] = system: pulmonary function (FEV1); conditions: clinical trials for COPD patients; worsened in the placebo group; cited from earlier work
[2] = commercially available antibodies, known values; cited from earlier work
neutrophil migration = conditions: clinical trials against cystic fibrosis; cited from earlier work
human FcγRIIIa = target: T1, human FcγRIIIa (Homo sapiens, UniProt P08637); experiment: Binding to soluble FcγR (BIACORE T200); conditions: 20° C., HBS-EP+
T1 construct: the soluble forms of FcγRIa and FcγRIIIa in human and cynomolgus monkey; His tag; made in house
Protocol: (§1) Soluble FcγRIa and FcγRIIIa in both human and cynomolgus monkey were produced in the form of His-tagged molecules by methods known to those of ordinary skill in the art. […] Next, soluble FcγRIa or FcγRIIIa was injected with a running buffer (used as a reference solution), and was made to interact with the antibodies captured onto the sensor chip. HBS-EP+(GE Healthcare) was used as the running buffer, and HBS-EP+ was also used to dilute the soluble FcγRIa or FcγRIIIa. […] All measurements were carried out at 20° C.

cynomolgus monkey FcγRIa = experiment: Binding to soluble FcγR (BIACORE T200); conditions: 20° C., HBS-EP+
Protocol: as §1

human FcγRIa = target: T2, human FcγRIa (Homo sapiens, UniProt P12314); experiment: Binding to soluble FcγR (BIACORE T200); conditions: 20° C., HBS-EP+
T2 construct: the soluble forms of FcγRIa and FcγRIIIa in human and cynomolgus monkey; His tag; made in house
Protocol: as §1

[3] = target: T3, cynomolgus monkey FcγRIIIa (Macaca fascicularis, UniProt Q8SPW2); experiment: Binding to soluble FcγR (BIACORE T200); conditions: 20° C., HBS-EP+
T3 construct: the soluble forms of FcγRIa and FcγRIIIa in human and cynomolgus monkey; His tag; made in house
Protocol: as §1

T3 sequence (Q8SPW2 17-208 limits assumed): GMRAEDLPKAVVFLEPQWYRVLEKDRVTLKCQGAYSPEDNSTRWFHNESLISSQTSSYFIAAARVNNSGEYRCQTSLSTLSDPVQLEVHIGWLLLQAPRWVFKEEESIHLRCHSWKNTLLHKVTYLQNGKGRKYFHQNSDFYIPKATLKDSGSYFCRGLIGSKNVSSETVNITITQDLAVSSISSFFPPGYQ
T2 sequence (P12314 16-292 limits assumed): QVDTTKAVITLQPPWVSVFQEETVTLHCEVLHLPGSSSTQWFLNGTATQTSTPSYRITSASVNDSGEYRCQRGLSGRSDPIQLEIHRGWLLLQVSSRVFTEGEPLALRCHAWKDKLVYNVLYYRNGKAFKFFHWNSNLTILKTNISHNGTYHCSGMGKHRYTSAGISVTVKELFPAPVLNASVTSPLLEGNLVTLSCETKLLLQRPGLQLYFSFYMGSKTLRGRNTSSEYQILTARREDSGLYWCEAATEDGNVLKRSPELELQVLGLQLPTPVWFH
T1 sequence (P08637 17-208 limits assumed): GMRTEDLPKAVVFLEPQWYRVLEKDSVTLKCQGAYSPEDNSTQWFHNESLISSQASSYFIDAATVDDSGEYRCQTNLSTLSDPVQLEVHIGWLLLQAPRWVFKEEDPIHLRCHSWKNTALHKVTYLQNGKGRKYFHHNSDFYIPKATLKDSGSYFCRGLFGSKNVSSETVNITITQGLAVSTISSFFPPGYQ

Molecule: CC[C@@H](Nc1c(Nc2cccc(C(=O)N(C)C)c2O)c(=O)c1=O)c1ccc(C)o1 [MK7123]
pulmonary function (FEV1) [1]: pulmonary function (FEV1) was improved in the active drug group

Molecule: Campath: commercially available antibody
frequency of ADA development in humans [2]: 45%

Molecule: O=C(Nc1ccc(Cl)c(S(=O)(=O)N2CCNCC2)c1O)Nc1cccc(F)c1Cl [Elubrixin]
topical neutrophil migration (neutrophil migration): Topical neutrophil migration was observed to be suppressed

Molecule: Zenapax: commercially available antibody
frequency of ADA development in humans [2]: 14%

binding to soluble human FcγRIIIa (human FcγRIIIa): bind to all FcγRs
binding to soluble cynomolgus monkey FcγRIa (cynomolgus monkey FcγRIa): bind to all FcγRs
binding to soluble human FcγRIa (human FcγRIa): bind to all FcγRs
binding to soluble cynomolgus monkey FcγRIIIa [3]: bind to all FcγRs
B1: H1009/L395-F1886m: variable region of H1009/L395 with Fc variant F1886m (antibody)
heavy: QVQLVESGGGLVQPGGSLRLSCAASGFTFSDYYLSWVRQAPGKGLEWVGLIRNKDNYHTPEYSASVKGRFTISRDDSKNSLYLTMSDLKTEDTAVYYCARENHRYDVELAYWGQGTLVTVSSASTKGPSVFPLAPSSKSTSGGTAALGCLVKDYFPEPVTVSWNSGALTSGVHTFPAVLQSSGLYSLSSVVTVPSSSLGTQTYICNVNHKPSNTKVDKKVEPKSCDKTHTCPPCPAPELLGGPSVFLFPPKPKDTLMISRTPEVTCVVVDVSHEDPEVKFNWYVDGVEVHNAKTKPREEQYNSTYRVVSVLTVLHQDWLNGKEYKCKVSNKALPAPIEKTISKAKGQPREPQVYTLPPSREEMTKNQVSLTCLVKGFYPSDIAVEWESNGQPENNYKTTPPVLDSDGSFFLYSKLTVDKSRWQQGNVFSCSVLHEALHAHTTRKELSLSP
light: DIQMTQSPSSLSASVGDRVTITCRASEIIYSYLAWYQQKPGKAPKLLIYKAKTHADGVPSRFSGSGSGTDFTFTISSLQPEDIATYYCKHHFGFPRTFGQGTKVEIKRTVAAPSVFIFPPSDEQLKSGTASVVCLLNNFYPREAKVQWKVDNALQSGNSQESVTEQDSKDSTYSLSSTLTLSKADYEKHKVYACEVTHQGLSSPVTKSFNRGEC
